In publication PMC8138981:

Key:
[1] = molecular target: YFP-tagged Kv7.2 WT channel (human) (UniProt O43526); experiment: FRET or BRET; living HEK293T cells; mCFP-CaM (donor) and YFP (mCitrine)-tagged Kv7.2, ABCD or AB (acceptor), transfection ratio 1:5; spectral unmixing of confocal images; room temperature, buffer with 2 mM CaCl2, pH 7.4
[2] = molecular target: mTFP1-AB-mcpVenus folding biosensor, W344R (human)
[3] = molecular target: mTFP1-AB-mcpVenus folding biosensor, WT (human)
mTFP1-AB-mcpVenus folding biosensor, WT (human), sequence (O43526 whole entry): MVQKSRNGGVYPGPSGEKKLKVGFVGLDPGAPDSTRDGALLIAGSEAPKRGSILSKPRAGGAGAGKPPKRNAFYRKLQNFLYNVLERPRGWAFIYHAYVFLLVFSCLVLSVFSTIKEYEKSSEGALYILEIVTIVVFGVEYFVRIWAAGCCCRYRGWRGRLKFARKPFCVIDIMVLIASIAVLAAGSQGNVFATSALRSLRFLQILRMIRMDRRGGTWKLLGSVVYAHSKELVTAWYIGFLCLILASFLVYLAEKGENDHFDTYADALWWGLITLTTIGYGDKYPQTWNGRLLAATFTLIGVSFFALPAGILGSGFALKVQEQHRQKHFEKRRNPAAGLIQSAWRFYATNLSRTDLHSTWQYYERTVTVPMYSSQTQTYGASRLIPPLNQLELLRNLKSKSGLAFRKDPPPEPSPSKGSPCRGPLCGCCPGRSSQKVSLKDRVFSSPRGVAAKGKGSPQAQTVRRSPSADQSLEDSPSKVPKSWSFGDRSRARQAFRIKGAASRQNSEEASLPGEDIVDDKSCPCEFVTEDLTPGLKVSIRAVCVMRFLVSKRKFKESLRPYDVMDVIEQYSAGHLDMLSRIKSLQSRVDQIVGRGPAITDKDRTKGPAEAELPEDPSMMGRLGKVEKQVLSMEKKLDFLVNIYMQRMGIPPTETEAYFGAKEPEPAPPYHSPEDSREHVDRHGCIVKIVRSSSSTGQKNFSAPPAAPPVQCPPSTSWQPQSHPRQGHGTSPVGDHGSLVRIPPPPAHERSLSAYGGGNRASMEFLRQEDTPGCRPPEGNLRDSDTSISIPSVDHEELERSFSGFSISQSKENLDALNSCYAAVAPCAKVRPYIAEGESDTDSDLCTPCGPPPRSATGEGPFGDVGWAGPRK

YFP-tagged Kv7.2 WT channel (human), sequence (O43526 other isoform, or with tags, fused parts or gaps): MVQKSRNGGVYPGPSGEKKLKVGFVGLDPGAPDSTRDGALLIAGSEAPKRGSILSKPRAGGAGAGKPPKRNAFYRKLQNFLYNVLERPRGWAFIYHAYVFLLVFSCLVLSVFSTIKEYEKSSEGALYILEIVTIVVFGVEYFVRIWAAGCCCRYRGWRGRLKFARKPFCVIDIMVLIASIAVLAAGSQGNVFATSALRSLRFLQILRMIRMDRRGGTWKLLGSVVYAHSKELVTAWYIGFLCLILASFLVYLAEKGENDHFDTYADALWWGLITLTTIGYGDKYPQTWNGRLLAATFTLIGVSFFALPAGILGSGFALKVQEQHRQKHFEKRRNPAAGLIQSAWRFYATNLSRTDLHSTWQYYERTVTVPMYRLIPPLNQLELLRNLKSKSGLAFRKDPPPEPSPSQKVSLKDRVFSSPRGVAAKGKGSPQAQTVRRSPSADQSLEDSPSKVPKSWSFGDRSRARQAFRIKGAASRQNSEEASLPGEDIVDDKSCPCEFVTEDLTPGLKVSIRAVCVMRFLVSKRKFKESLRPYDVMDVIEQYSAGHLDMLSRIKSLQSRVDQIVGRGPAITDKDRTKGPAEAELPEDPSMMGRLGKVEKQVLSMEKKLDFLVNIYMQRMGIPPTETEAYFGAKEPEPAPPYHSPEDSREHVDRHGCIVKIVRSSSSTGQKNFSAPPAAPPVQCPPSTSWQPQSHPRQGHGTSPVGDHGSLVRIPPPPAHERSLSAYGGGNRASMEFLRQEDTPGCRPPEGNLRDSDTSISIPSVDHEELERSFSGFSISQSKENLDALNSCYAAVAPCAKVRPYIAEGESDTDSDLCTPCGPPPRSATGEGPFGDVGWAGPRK

Row | FRET efficiency [1] | FRET efficiency of the soluble fraction of the sensor co-expressed with CaM in E. coli, relative to the WT biosensor [2] | FRET efficiency (ratio of peak emission at 528 and 492 nm) of the folding sensor co-expressed with CaM [3] | Substance
1 | 0.18 |  |  | Calmodulin with an N-terminus mCFP-tag (from UniProt P0DP23 1-149) (natural protein)
2 |  | 33% | 0.4 | Calmodulin (from UniProt P0DP23 1-149) (natural protein)
